# Results taken from PMC12229552 (Nature Communications, 2025).
# B1: 6×His-tagged human DDX1 (natural protein, UniProt Q92499-1 1-740, looked up)
# chain: MAAFSEMGVMPEIAQAVEEMDWLLPTDIQAESIPLILGGGDVLMAAETGSGKTGAFSIPVIQIVYETLKDQQEGKKGKTTIKTGASVLNKWQMNPYDRGSAFAIGSDGLCCQSREVKEWHGCRATKGLMKGKHYYEVSCHDQGLCRVGWSTMQASLDLGTDKFGFGFGGTGKKSHNKQFDNYGEEFTMHDTIGCYLDIDKGHVKFSKNGKDLGLAFEIPPHMKNQALFPACVLKNAELKFNFGEEEFKFPPKDGFVALSKAPDGYIVKSQHSGNAQVTQTKFLPNAPKALIVEPSRELAEQTLNNIKQFKKYIDNPKLRELLIIGGVAARDQLSVLENGVDIVVGTPGRLDDLVSTGKLNLSQVRFLVLDEADGLLSQGYSDFINRMHNQIPQVTSDGKRLQVIVCSATLHSFDVKKLSEKIMHFPTWVDLKGEDSVPDTVHHVVVPVNPKTDRLWERLGKSHIRTDDVHAKDNTRPGANSPEMWSEAIKILKGEYAVRAIKEHKMDQAIIFCRTKIDCDNLEQYFIQQGGGPDKKGHQFSCVCLHGDRKPHERKQNLERFKKGDVRFLICTDVAARGIDIHGVPYVINVTLPDEKQNYVHRIGRVGRAERMGLAISLVATEKEKVWYHVCSSRGKGCYNTRLKEDGGCTIWYNEMQLLSEIEEHLNCTISQVEPDIKVPVDEFDGKVTYGQKRAAGGGSYKGHVDILAPTVQELAALEKEAQTSFLHLGYLPNQLFRTF
# Biological target: GST-tagged human EZH2 (human, UniProt Q15910-2 1-751)
# Assay: pull-down
binder,measurement,value
B1,binding result,binds
